# Laboratory results: article doi:10.1101/2025.01.04.631317
# Biological target: RSV post-fusion F (Flys-GCN without StrepII-tag) (Respiratory Syncytial Virus)
# Assay: cryo-EM structure
substance,measurement,value
RSV post-fusion F (Flys-GCN without StrepII-tag),stoichiometry N,3
